Tested on: peptide library, one residue held at a place counted from the S/T acceptor
Experiment: relative phosphorylation of the sub-library (ratio to the mean residue at this position); higher = residue favoured
Details: human
How it was run: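 Relative sub-library phosphorylation is a ratio to the mean residue at the same position. Purified recombinant kinases were incubated under kinase-specific conditions with biotinylated degenerate peptide sub-libraries, each fixing one residue at one position around a central Ser/Thr, using 50 μM peptide and 50 μM ATP spiked with γ-32P-ATP for 90 min. Spots captured on streptavidin membranes were phosphorimaged and quantified by densitometry.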

Chain of MAP3K6, construct: aa620-950 (O95382 620-950, looked up): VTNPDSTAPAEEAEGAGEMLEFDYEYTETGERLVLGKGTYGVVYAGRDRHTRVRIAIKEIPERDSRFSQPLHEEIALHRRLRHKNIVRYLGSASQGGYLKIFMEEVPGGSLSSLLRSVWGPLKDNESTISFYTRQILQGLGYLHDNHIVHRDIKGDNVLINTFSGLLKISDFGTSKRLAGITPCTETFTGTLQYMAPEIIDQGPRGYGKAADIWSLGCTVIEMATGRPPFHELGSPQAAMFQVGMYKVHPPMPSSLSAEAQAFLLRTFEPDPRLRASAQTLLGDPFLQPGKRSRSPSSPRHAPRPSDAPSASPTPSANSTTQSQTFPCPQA
Chain of DAPK1, construct: aa1-363 (P53355 1-363, looked up): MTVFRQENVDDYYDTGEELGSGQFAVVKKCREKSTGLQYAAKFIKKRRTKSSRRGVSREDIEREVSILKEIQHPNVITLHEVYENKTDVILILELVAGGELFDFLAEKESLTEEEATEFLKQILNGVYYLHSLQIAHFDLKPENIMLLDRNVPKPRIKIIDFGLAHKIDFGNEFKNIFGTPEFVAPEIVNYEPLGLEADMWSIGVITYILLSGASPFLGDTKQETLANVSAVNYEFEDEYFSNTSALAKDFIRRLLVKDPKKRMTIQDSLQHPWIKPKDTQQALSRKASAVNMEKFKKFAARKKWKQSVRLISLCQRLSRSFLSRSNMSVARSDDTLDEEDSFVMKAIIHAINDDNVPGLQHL
Chain of GAK, construct: aa24-359 (O14976 24-359, looked up): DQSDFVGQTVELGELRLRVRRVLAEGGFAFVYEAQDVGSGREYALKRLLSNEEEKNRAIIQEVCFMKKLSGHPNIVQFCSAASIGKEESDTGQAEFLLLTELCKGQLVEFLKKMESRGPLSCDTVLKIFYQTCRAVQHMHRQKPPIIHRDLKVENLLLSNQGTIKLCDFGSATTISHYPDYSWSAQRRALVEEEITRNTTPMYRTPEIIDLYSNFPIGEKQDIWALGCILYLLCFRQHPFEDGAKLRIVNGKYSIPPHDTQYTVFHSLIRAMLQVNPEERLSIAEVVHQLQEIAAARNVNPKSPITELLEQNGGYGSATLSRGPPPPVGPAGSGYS
Chain of MAPK3, construct: Full length (P27361 whole entry, looked up): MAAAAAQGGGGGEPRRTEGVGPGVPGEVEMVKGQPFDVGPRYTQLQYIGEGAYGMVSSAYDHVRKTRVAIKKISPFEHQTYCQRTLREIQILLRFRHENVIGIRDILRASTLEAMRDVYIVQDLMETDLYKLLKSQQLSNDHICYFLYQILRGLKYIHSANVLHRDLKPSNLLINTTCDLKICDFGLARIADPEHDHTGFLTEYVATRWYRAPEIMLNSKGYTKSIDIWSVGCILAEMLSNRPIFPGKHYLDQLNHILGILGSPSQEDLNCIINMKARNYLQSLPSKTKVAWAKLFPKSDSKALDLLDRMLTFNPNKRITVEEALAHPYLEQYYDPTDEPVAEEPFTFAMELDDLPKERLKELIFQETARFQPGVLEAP

MAP3K6, construct: aa620-950 (from UniProt O95382)
relative phosphorylation
Details	at +1	at +2	at +3	at +4	at -1	at -2	at -3	at -4	at -5
A fixed	1.34	0.898	1.23	0.902	1.33	1.5	1.24	1.03	1.15
D fixed	0.184	0.304	0.38	0.371	0.366	0.366	0.474	0.589	0.603
E fixed	0.255	0.23	0.335	0.36	0.391	0.365	0.561	0.641	0.712
F fixed	0.74	0.907	1.12	1.04	0.584	0.622	0.872	0.93	0.875
G fixed	0.715	0.78	1.05	1.12	1.91	1.18	1.15	1.09	1.15
H fixed	1.4	1.41	1.02	1.26	1.12	1.16	1.35	1.32	1.24
I fixed	1.26	0.568	0.606	1.07	0.588	0.879	0.736	0.725	0.613
K fixed	0.426	1.54	1.26	1.82	1.1	0.972	1.03	1.3	1.32
L fixed	1.36	0.912	1.2	0.797	0.805	0.922	0.913	0.76	0.86
M fixed	1.73	1.01	0.995	0.908	1.13	0.758	0.859	1.31	0.869
N fixed	0.754	0.839	0.793	0.822	0.94	1.41	1.02	0.958	1.03
P fixed	0.354	0.498	1.1	0.931	0.896	1.16	0.774	0.824	1.08
Q fixed	0.844	0.83	0.946	0.931	0.891	1.25	1.08	1.02	1.14
R fixed	0.594	2.05	1.57	1.66	1.72	1.37	1.55	1.18	1.43
V fixed	1.62	0.726	0.984	0.853	0.917	1.35	0.984	1.02	0.996
W fixed	1.38	1.19	1.1	0.955	0.951	0.748	1.25	1.12	1.05
Y fixed	2.05	2.31	1.3	1.19	1.36	0.979	1.17	1.19	0.881
pThr fixed	0.602	0.585	0.681	0.261	0.574	0.9	0.725	0.845	0.914
pTyr fixed	0.421	0.294	0.614	0.356	0.673	0.548	0.787	0.736	0.917

MAPK3, construct: Full length (from UniProt P27361)
relative phosphorylation
Details	at +1	at +2	at +3	at +4	at -1	at -2	at -3	at -4	at -5
A fixed	1.21	1.07	1.04	0.886	0.999	1.2	1.23	1.09	1.06
D fixed	0.0833	0.582	0.614	0.81	0.5	0.407	0.989	1.19	1.31
E fixed	0.0773	0.244	0.706	0.732	0.509	0.454	1.27	1.35	1.2
F fixed	0.372	1.1	1.15	1.22	0.802	0.577	0.808	0.946	1.09
G fixed	0.947	1.34	1.13	1.02	1	0.724	1.32	1.25	1.25
H fixed	0.217	1.26	1.11	1.07	0.975	0.461	0.949	0.914	1.11
I fixed	0.292	0.775	0.878	0.943	0.67	1.18	0.792	0.82	0.724
K fixed	0.179	1.58	0.699	1.31	1.35	0.345	0.663	0.874	0.904
L fixed	0.398	1.11	1.08	1.02	1.31	1.42	0.917	0.958	0.903
M fixed	0.276	0.987	0.971	1.09	1.39	1.29	1.08	1.09	0.907
N fixed	0.155	1.26	0.786	0.931	0.785	0.613	0.989	0.855	0.93
P fixed	11.6	0.628	1.56	0.896	1.26	4.97	1.74	1.18	1.11
Q fixed	0.159	0.788	0.736	1.01	1.1	0.82	1.05	0.942	0.975
R fixed	0.223	2.13	0.979	1.1	1.85	0.566	0.907	0.905	0.841
V fixed	0.291	0.711	0.879	0.903	0.746	1.22	0.837	0.777	0.783
W fixed	0.261	0.681	1.55	1.12	0.654	0.386	0.659	0.913	0.781
Y fixed	0.211	0.744	1.13	0.931	1.08	0.373	0.798	0.948	1.13
pThr fixed	0.338	0.662	0.663	0.75	0.373	0.941	1.23	1.23	1.41
pTyr fixed	0.323	0.38	1.01	1.08	0.444	0.686	1.29	1.37	1.25

GAK, construct: aa24-359 (from UniProt O14976)
relative phosphorylation
Details	at +1	at +2	at +3	at +4	at -1	at -2	at -3	at -4	at -5
A fixed	0.783	1.19	0.848	0.882	0.845	0.985	0.819	0.986	0.954
D fixed	0.647	0.954	0.997	0.884	0.75	0.753	0.898	1.14	1.08
E fixed	0.658	0.86	1.05	0.891	0.653	0.778	0.912	1.49	1.03
F fixed	0.643	0.918	0.862	1.02	0.904	0.801	0.709	0.856	0.879
G fixed	5.69	1.37	1.28	0.908	0.974	1.08	0.888	0.947	0.831
H fixed	0.829	1.13	1.19	0.96	1.13	1.13	1.11	1.11	1.1
I fixed	0.588	0.741	0.822	0.849	0.824	0.879	0.935	0.852	1.06
K fixed	0.766	1.08	1.21	1.21	2.28	1.1	1.43	1.12	1.09
L fixed	0.615	0.801	0.914	0.987	0.808	0.994	1.01	0.83	0.802
M fixed	0.649	0.792	0.825	0.896	0.813	1.06	1.07	0.875	0.853
N fixed	0.841	1.28	1.22	0.913	0.973	1.65	1.17	0.941	0.978
P fixed	0.729	0.736	0.801	0.834	1.23	0.687	0.751	0.69	0.696
Q fixed	0.696	1.1	1.05	1	0.965	1.22	1.16	1.04	0.853
R fixed	0.833	1.26	1.2	1.34	1.3	1.28	1.43	1.14	1.15
V fixed	0.59	0.902	0.974	0.882	0.914	0.86	0.901	0.959	1
W fixed	0.769	1.03	0.82	1.59	0.803	0.848	0.849	1.03	1.05
Y fixed	0.672	0.831	0.931	0.947	0.838	0.9	0.959	0.998	1.6
pThr fixed	0.904	1.95	1.38	1.44	1.22	1.63	1.69	1.55	1.23
pTyr fixed	0.674	0.963	0.94	0.772	0.884	1.09	1.27	1.23	1.27

DAPK1, construct: aa1-363 (from UniProt P53355)
relative phosphorylation
Details	at +1	at +2	at +3	at +4	at -1	at -2	at -3	at -4	at -5
A fixed	0.752	0.793	0.813	0.817	0.743	1.27	0.626	0.975	0.91
D fixed	1.81	0.767	0.98	0.853	0.83	0.333	0.336	0.665	0.58
E fixed	1.76	0.953	0.979	0.857	0.63	0.347	0.374	0.82	0.622
F fixed	0.867	0.998	0.999	1.13	0.771	0.4	0.45	0.844	0.773
G fixed	1.06	0.651	0.978	0.935	0.847	0.662	0.62	0.937	1.03
H fixed	0.714	0.936	1	1.45	1.24	0.987	0.754	1	1.05
I fixed	0.877	1.05	1.95	0.913	0.701	0.308	0.418	0.871	0.955
K fixed	0.476	0.717	0.665	0.72	1.35	1.38	2.1	1.63	1.67
L fixed	0.792	1.92	1.39	0.777	1.18	0.354	0.385	0.796	1.02
M fixed	1.12	1.71	1.04	1.01	1.14	0.387	0.421	0.959	0.954
N fixed	1.47	0.871	0.818	0.985	1.4	0.672	0.483	0.93	0.842
P fixed	0.353	0.724	0.693	0.994	1.04	0.338	0.558	0.677	0.756
Q fixed	2.1	1.03	0.767	0.816	1.06	0.742	0.632	1.03	0.828
R fixed	0.659	1.06	0.832	0.912	1.64	7.29	7.46	2.31	2.36
V fixed	0.821	0.912	1.3	0.792	0.691	0.345	0.297	0.77	0.722
W fixed	0.698	0.827	0.856	1.7	0.695	0.732	0.592	0.856	0.73
Y fixed	0.68	1.08	0.936	1.33	1.05	0.46	0.502	0.928	1.2
pThr fixed	3.07	1.42	1.26	1.87	0.889	0.618	0.741	0.996	1.17
pTyr fixed	1.87	1.41	2.43	1.56	1.33	0.71	0.721	0.94	1.15
